Results taken from the supplement of paper PMC7125110.
± gives the standard error. Variants at the floor of the assay were thinned out.

B1: glmS ribozyme (parent)
chain: AUAAAAGCGCCAGAACUACAGAAAUGUAGUUGACGAGGAGGAGGUUUAUCGAAUUUUCGGCGGAUGCCUCCAAA

Key:
Conditions in all cases: with glucosamine-6-phosphate
glucosamine-6-phosphate [1] = variants of: B1; assay: self-cleavage kobs at 640 uM GlcN6P; higher = faster cleavage; RNA array
How it was run: (§1)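 Barcoded glmS ribozyme variants on sequenced MiSeq chips were transcribed in situ by E. coli RNA polymerase and tracked through a hybridised Cy3 probe at 37 °C. Glucosamine-6-phosphate (40 μM to 10 mM) in HEPES/KCl/Mg(OAc)2 buffer was flowed in, and tiles were imaged over ~14 h. Signals were normalised to baseline and to non-cleaving reference variants; per-tile medians were fit to one- or two-exponential decays to give kobs. kcat and KM came from weighted Michaelis–Menten fits across concentrations.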

glucosamine-6-phosphate [2] = variants of: B1; assay: self-cleavage kobs at 2500 uM GlcN6P; higher = faster cleavage; RNA array
How it was run: as §1

glucosamine-6-phosphate [3] = variants of: B1; assay: self-cleavage kobs at 10000 uM GlcN6P; higher = faster cleavage; RNA array
How it was run: as §1

| Variant | self-cleavage kobs at 640 uM GlcN6P (glucosamine-6-phosphate [1]) | self-cleavage kobs at 2500 uM GlcN6P (glucosamine-6-phosphate [2]) | self-cleavage kobs at 10000 uM GlcN6P (glucosamine-6-phosphate [3]) |
| --- | --- | --- | --- |
| G29C U55G | 0.000107 ± 1.3e-05 s⁻¹ | 0.000164 ± 2.5e-05 s⁻¹ | 0.000757 ± 9.6e-05 s⁻¹ |
| A15U U55C C70U | 4.5e-05 ± 2.2e-05 s⁻¹ | 9.45e-05 ± 3.3e-05 s⁻¹ |  |
| G29A U45G | 0.000156 ± 4.7e-05 s⁻¹ | 0.000503 ± 0.00012 s⁻¹ |  |
| G29C G43U U57G | < 1e-05 s⁻¹ |  |  |
| A15G C16A U30C | 0.000332 ± 0.00012 s⁻¹ | 0.00063 ± 0.00023 s⁻¹ |  |
| A15G U54A G66C | 0.000369 ± 9e-05 s⁻¹ | 0.000502 ± 9.7e-05 s⁻¹ |  |
| U31G U45C A53G | 0.000175 ± 3.2e-05 s⁻¹ | 0.000528 ± 9.1e-05 s⁻¹ |  |
| A14U G35A G40C | < 1e-05 s⁻¹ |  |  |
| U30A U31A G66A | 0.000765 ± 0.00037 s⁻¹ |  |  |
| U30G C34A U47A | < 1e-05 s⁻¹ |  |  |
| U30A G41U G43U U54C | < 1e-05 s⁻¹ |  |  |
| G29C U65G C67G | 0.000341 ± 0.00016 s⁻¹ |  |  |
| A15U C34G G63A | < 1e-05 s⁻¹ |  |  |
| A15G C58A U69G | 0.000122 ± 3.7e-05 s⁻¹ | 8.9e-05 ± 2.5e-05 s⁻¹ |  |
| U31G A33C C50U U56C A64G | < 1e-05 s⁻¹ | < 1e-05 s⁻¹ |  |
| A15G U47G U55G C70A | 0.000102 ± 1.7e-05 s⁻¹ |  |  |
| U31A C34U A42C A48U G62U | < 1e-05 s⁻¹ |  |  |
| G29U A53C | 0.00015 ± 7.4e-05 s⁻¹ | 0.00118 ± 0.00032 s⁻¹ | 0.000874 ± 0.00028 s⁻¹ |
| C16G U56C C58U | < 1e-05 s⁻¹ |  |  |
| U31C G32A U65G | 5.75e-05 ± 1.9e-05 s⁻¹ | 0.000133 ± 3.3e-05 s⁻¹ |  |
| A15C U30C U31G U69G | 0.00017 ± 4.8e-05 s⁻¹ |  |  |
| U30C A33G A52G | < 1e-05 s⁻¹ |  |  |
| A24C A52U G59A | < 1e-05 s⁻¹ |  | < 1e-05 s⁻¹ |
| G32A U57A C70G | 0.000649 ± 0.00023 s⁻¹ |  |  |

| Variant | self-cleavage kobs at 640 uM GlcN6P (glucosamine-6-phosphate [1]) | self-cleavage kobs at 2500 uM GlcN6P (glucosamine-6-phosphate [2]) | self-cleavage kobs at 10000 uM GlcN6P (glucosamine-6-phosphate [3]) |
| --- | --- | --- | --- |
| C16U U46A A52U | < 1e-05 s⁻¹ |  |  |
| U31C G41A G63C C68A | < 1e-05 s⁻¹ |  |  |
| A15C U45G U56C C58A C67G C68A | 8.64e-05 ± 2.9e-05 s⁻¹ |  |  |
| C16U G60U C61G | < 1e-05 s⁻¹ |  |  |
| G29U U56C C61G | < 1e-05 s⁻¹ |  |  |
| U30A A33G U57C | < 1e-05 s⁻¹ |  |  |
| C16G A39G C71A | 0.000265 ± 9.1e-05 s⁻¹ | 0.000286 ± 0.00013 s⁻¹ |  |
| A15C A33C A36C | < 1e-05 s⁻¹ |  |  |
| G32U G35C U46A C67G C68A | 0.000467 ± 0.00023 s⁻¹ |  |  |
| A14G G32C G63C G66U U69G | < 1e-05 s⁻¹ | < 1e-05 s⁻¹ |  |
| G32C G51C A64G C70U | < 1e-05 s⁻¹ |  |  |
| G29C U30C U49G | < 1e-05 s⁻¹ |  | < 1e-05 s⁻¹ |
| A15C C16U U17A A18C C19A A36G G44U | < 1e-05 s⁻¹ |  |  |
| U31A A33U A48G | < 1e-05 s⁻¹ | < 1e-05 s⁻¹ |  |
| U30C C34U U57A | < 1e-05 s⁻¹ |  |  |
| A14G G43U G63U C70A | < 1e-05 s⁻¹ | < 1e-05 s⁻¹ |  |
| G21U U47G | 0.00247 ± 0.00049 s⁻¹ |  |  |
| A14U C16A G66A | 3.92e-05 ± 1.7e-05 s⁻¹ | 0.000107 ± 2.6e-05 s⁻¹ |  |
| A15G A33G A48G G60U | < 1e-05 s⁻¹ |  |  |
| G29A G35U A42U | < 1e-05 s⁻¹ | < 1e-05 s⁻¹ | < 1e-05 s⁻¹ |
| C16G U30A U55G | 0.000125 ± 5.7e-05 s⁻¹ | 8.11e-05 ± 3.1e-05 s⁻¹ |  |
| U31G G37U U69G | 6.98e-05 ± 2.8e-05 s⁻¹ | 9.82e-05 ± 3e-05 s⁻¹ |  |
| A33C A42C U47G U56G | < 1e-05 s⁻¹ |  |  |
| G29A C34U G44C A53U C68U | < 1e-05 s⁻¹ |  |  |

| Variant | self-cleavage kobs at 640 uM GlcN6P (glucosamine-6-phosphate [1]) | self-cleavage kobs at 2500 uM GlcN6P (glucosamine-6-phosphate [2]) | self-cleavage kobs at 10000 uM GlcN6P (glucosamine-6-phosphate [3]) |
| --- | --- | --- | --- |
| U30A U55G C61U | < 1e-05 s⁻¹ |  | < 1e-05 s⁻¹ |
| U30C G32U G44A A48C U57A | < 1e-05 s⁻¹ | < 1e-05 s⁻¹ |  |
| U31A A36U A48U U69C | < 1e-05 s⁻¹ |  |  |
| U31G G60U U65A | < 1e-05 s⁻¹ |  |  |
| G32C G40C U57G | < 1e-05 s⁻¹ |  |  |
| G32U A33U U45A | < 1e-05 s⁻¹ |  |  |
| A15C G29C G60U | < 1e-05 s⁻¹ | < 1e-05 s⁻¹ | < 1e-05 s⁻¹ |
| G29A G44U U65C | < 1e-05 s⁻¹ | < 1e-05 s⁻¹ |  |
| C16G U31G U54G | 0.000146 ± 3.7e-05 s⁻¹ | 0.000327 ± 5.9e-05 s⁻¹ |  |
| G29A U49A A53G C68A | 7.05e-05 ± 2.9e-05 s⁻¹ |  |  |
| C16A U31C A33G C34A A52U C68U | < 1e-05 s⁻¹ |  |  |
| G32C G37U G51C | < 1e-05 s⁻¹ |  |  |
| G32C A36G G37U | < 1e-05 s⁻¹ |  |  |
| G32C A42U A53G U57A A64G | < 1e-05 s⁻¹ | < 1e-05 s⁻¹ |  |
| U30C G63U C70G | 3.84e-05 ± 1.8e-05 s⁻¹ |  |  |
| A14G G40U G41C | 7.7e-05 ± 1.5e-05 s⁻¹ | 0.00015 ± 3.4e-05 s⁻¹ |  |
| U30G A36U A42C A64U C67G | < 1e-05 s⁻¹ | < 1e-05 s⁻¹ |  |
| G29C A42C A48C | < 1e-05 s⁻¹ |  |  |
| U17C G44U U47C | < 1e-05 s⁻¹ |  |  |
| C16U A39U G66U | 0.000779 ± 0.00014 s⁻¹ | 0.00146 ± 0.00036 s⁻¹ |  |
| U31A C34U G51U | < 1e-05 s⁻¹ | < 1e-05 s⁻¹ |  |
| G29C U30G A33U C58U | < 1e-05 s⁻¹ | < 1e-05 s⁻¹ |  |
